The source of these data is patent US20030170653A1, “Biological method for the production of tuliposide A and its intermediates” (priority 2001, published 2003).

The nature of data set [1]: Decarboxylase enzyme activity of E. coli extracts, substrate L-glutamate (HPLC of FMOC derivatives). It counts as biochemical. Conditions: for Rate for each substrate: Glutamate (1): crude protein, 20 mM L-glutamate, pH 5.8, room temperature; for Ratio (½): rate with glutamate (1) over rate with γ-methyleneglutamate (2). The method, then: (§1) Chemically competent BL21 (DE3) cells (Novagen) were transformed with pNW2, pNW12 and pNW9, as well as with plasmids pET28a and pET29a. An isolated colony of freshly transformed cells was inoculated into 2 mL of LB containing kanamycin (50 μg/mL) and the culture grown overnight at 37° C. Cultures were transferred to 250 mL of LB containing kanamycin (50 μg/mL) and grown at 22° C. to OD 0.6-1.0, at which point they were induced with IPTG (0.1 mM). Induced cells were grown for an additional 14 h and harvested by centrifugation at 10,000× g.
(§2) Cells were resuspended in 5 mL of extraction buffer (50 mM Tris-HCl, pH 7.5, 0.2 mM EDTA, 10% glycerol, 1 mM DTT and 1 mM fresh AEBSF) and disrupted by two passes through a French press cell (12,000 psi). Soluble protein extracts were obtained from the supernatant fraction after centrifugation at 10,000× g for 10 min. Protein concentrations were determined using a Bradford reagent (Bio-Rad) (Bradford, Anal. Biochem. 72:248-254 (1976)).
(§3) Enzyme activity was determined using a method similar to that of Snedden et al. (J. Biol. Chem. 271:4148-4153 (1996)) and Turano et al. (Plant Physiol. 117:1141-1421 (1998)). Assays were carried out in a volume of 200 μL with 200 mM pyridine-HCl, pH 5.8, 10 mM NaCl, 0.1 mM PLP, 20 mM L-glutamate or D,L-γ-methyleneglutamate, and 20 to 50 uL of enzyme extract. The reactions were incubated at room temperature and 50 μL aliquots were removed at various times. Ethanol (100 μL) was added to terminate the reaction and precipitate the proteins. Samples were centrifuged at 10,000× g for 10 min. The supernatants were transferred to a fresh tube and dried under vacuum after which they were dissolved in 500 μL of borate buffer (400 mM, pH 10). For HPLC analysis, 20 μL of the sample was derivatized by mixing with 20 μL of FMOC ((9-fluorenylmethoxycarbonyl)). FMOC-derivatized samples were separated on a Novapak C18 column (3.9×150 mm, Waters) using an Alliance 2690 HPLC with a 9600 PDA detector (Waters). Samples were injected (16 μL) and separated with a gradient of Buffer A (40 mM NaPO4, pH 7.8) to Buffer B (methanol:acetonitrile:water/45:45:10). Assay products were FMOC-derivatized and quantified by comparison with standards. In each experiment, enzyme activity determinations were performed in triplicate. Proteins from Escherichia coli expressing empty vectors pET28a and pET29a were used as controls.

Data set [2] is described as follows: Decarboxylase enzyme activity of E. coli extracts, substrate D,L-γ-methyleneglutamate (HPLC of FMOC derivatives). It counts as biochemical. The note with it: for Rate for each substrate: γ-methyleneglutamate (2): crude protein, 20 mM D,L-γ-methyleneglutamate, pH 5.8, room temperature; for enzyme activity against D,L-γ-methyleneglutamate compared with L-glutamate: proteins from expressing cells. The method, then: as §1, §2, §3

B1: Gad2/pNW2: glutamate decarboxylase homolog from Alstroemeria (SEQ ID NO: 2), expressed in E. coli from vector pNW2, crude protein (protein)
chain: MVLSSAVSDNTGPVHCTFASRYVRDAPARFRMPENSIPKDTAYQIVNDELMLDGNPRLNLASFVTTWMEPECDRLMIAAANKNYVDMDEYPVTTELQNRCVNIIAHLFNAPIGDEETAVGVGTVGSSEAIMLAGLAFKRKWQNKKKAEGKPYDKPNIVTGANVQVCWEKFARYFEVELKEVKLREGYYIMDPEKAVEMVDENTICVAAILGSTLTGEFEDVKLLNKLLEEKNKETGWDTPIHVDAASGGFIAPFLYPELEWDFRLPLVKSINVSGHKYGLVYAGVGWVVWRNKEDLPEELIFHINYLGADQPTFTLNFSKGSSQIIAQYYQFIRLGFQGYKNIMENCMENTRILREGLQETGRFEIVSKDIGVPLVAFALKDSSQYTVFEIADAMRRFGWIIPAYTMPKDAEHIAVLRVVIREDFSRSLAERLVNDMKKVLAELDVLPSRITTIAHVTAVENDNGEAVIKKSFLEIEKKVITHWKDVVMNGKKTNKVC
modifications: Alstroemeria
As to B1, in data set [1], the “Rate for each substrate: Glutamate (1)” value was 12.0 μmol/min^−1/mg^−1 and the “Ratio (½)” value was determined as 16. For the same molecule, the “enzyme activity with L-glutamate compared with D,L-γ-methyleneglutamate as substrate” value in data set [1] (proteins from expressing cells) is on record as “sixteen times higher”. Further, the “Rate for each substrate: γ-methyleneglutamate (2)” value in data set [2] is listed as 0.8 μmol/min^−1/mg^−1.

B2: Gad3del/pNW12: glutamate decarboxylase homolog from Alstroemeria with in-frame deletion (SEQ ID NO: 4), N-terminal His-tag fusion from vector pNW12 (protein)
chain: MALSSVVSDSNNQVQCTYASRYVRDEAPGFRMPEKSIPKEAAFTMINDELMLDGNPRLNLASFVTTWMEPECDRLMMSTINKNYALMDDYPVTIDIQNRCVNMIANLFNAPIGEGETTVGCATVGSSEAMMLAGLAFKRNWQNKRKAEGKPYDKPNMVTGSNVQVCWVKFAKYFEVEMKKVNLREGYYVMDPEKAVEMVDENTICVAAILGSTLTGEFEDVKLLNDLLVEKNKKTGWDTPIHVDAAIGGFIAPFIYPELEWDFRLPLVKSINVSGHKYGLVYPGVGWVVWRNKNDLPEELIFHINYLGIDQPTFTLNFSKGSNQIIGQYYQLIRLGFEGYKNIMENCTENARILREHLEEMGVFEIISKDIGAPLVTIALKDSSKHSVFKIADTIRRFGWTIPAYTMPKDVEHIAVLRVVIREDFSRSLAERLANDMKKVLVELDIHPSRTTTIAHVKAVENGNGNYVIKKSIVENGNGEHVIKKSIGENGNGKHAIKNCRDAVIANAA
modifications: N-terminal His-tag; Alstroemeria
Regarding B2, in data set [1], the “Rate for each substrate: Glutamate (1)” value worked out at 7.0 μmol/min^−1/mg^−1 and the “Ratio (½)” value is given as 0.56. For the same molecule, in data set [2], the “Rate for each substrate: γ-methyleneglutamate (2)” value came to 12.4 μmol/min^−1/mg^−1 and the “enzyme activity against D,L-γ-methyleneglutamate compared with L-glutamate” value is on record as “much higher”.

B3: gad3chim: chimeric glutamate decarboxylase homolog from Alstroemeria (SEQ ID NO: 6), N-terminal His-tag fusion from vector pNW9 (protein)
chain: MALSSVVSDSNNQVQCTYASRYVRDEAPGFRMPEKSIPKEAAFTMINDELMLDGNPRLNLASFVTTWMEPECDRLMMSTINKNYALMDDYPVTIDIQNRCVNMIANLFNAPIGEGETTVGCATVGSSEAMMLAGLAFKRNWQNKRKAEGKPYDKPNMVTGSNVQVCWVKFAKYFEVEMKKVNLREGYYVMDPEKAVEMVDENTICVAAILGSTLTGEFEDVKLLNDLLVEKNKKTGWDTPIHVDAAIGGFIAPFIYPELEWDFRLPLVKSINVSGHKYGLVYPGVGWVVWRNKNDLPEELIFHINYLGIDQPTFTLNFSKGSNQIIGQYYQLIRLGFEGYKNIMENCTENARILREHLEEMGVFEIISKDIGAPLVTIALKDSSKHSVFKIADTIRRFGWTIPAYTMPKDVEHIAVLRVVIREDFSRSLAERLANDMKKVLVELDIHPSRTTTIAHVKAVENGNGNYVIKKSIVENGNGEHVIKKSIGENGNGKHAIKNEHVIKKSIGENFNGKHAIKNCRDAVIANAA
modifications: N-terminal His-tag; Alstroemeria
Consider B3, for which the “enzyme activity against D,L-γ-methyleneglutamate compared with L-glutamate” value in data set [2] is listed as “much higher”.
